Results: US20240383985A1 (published 2024)
Substitutions are numbered along the chain they refer to. Names and notes keep the numbering of the source. Like-named read-outs stand apart in the source and are kept apart here. Blank lines part the entries; values can stand above or below the binder they belong to.

How the values were obtained:
[1] = target: CD38 naturally expressed on Daudi cells (human, UniProt P28907 1-300); assay: FACS; FIG. 24
[2] = target: T1, CD33 naturally expressed on HL60 cells (human, UniProt P20138 18-364); assay: FACS
[3] = target: T1, CD33 naturally expressed on HL60 cells; assay: FACS; remark: listed apart in the source
CS1-Fc = target: T2, CS1-Fc (UniProt Q9NQ25 23-226); assay: ELISA
T2 chain: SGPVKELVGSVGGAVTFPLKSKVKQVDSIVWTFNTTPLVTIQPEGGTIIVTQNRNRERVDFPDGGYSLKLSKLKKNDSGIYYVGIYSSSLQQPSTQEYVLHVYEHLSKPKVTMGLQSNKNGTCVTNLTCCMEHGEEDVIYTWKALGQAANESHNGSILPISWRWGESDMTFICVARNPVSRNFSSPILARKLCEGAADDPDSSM

T1 sequence (P20138 18-364): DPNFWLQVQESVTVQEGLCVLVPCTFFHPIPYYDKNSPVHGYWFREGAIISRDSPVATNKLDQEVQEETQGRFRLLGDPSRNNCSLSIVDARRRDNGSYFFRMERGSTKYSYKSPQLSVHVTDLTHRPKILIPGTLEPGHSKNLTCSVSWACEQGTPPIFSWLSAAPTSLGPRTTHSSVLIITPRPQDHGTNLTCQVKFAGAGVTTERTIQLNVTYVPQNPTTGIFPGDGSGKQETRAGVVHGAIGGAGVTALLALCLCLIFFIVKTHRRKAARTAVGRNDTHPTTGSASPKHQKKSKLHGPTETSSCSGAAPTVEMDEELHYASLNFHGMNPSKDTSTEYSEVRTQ

B1: QP34483449 (antibody, V domains shown)
VH: EVQLVESGGGLVQPGGSLRLSCAASGFDFSRYWMSWVRQAPGKGLEWIGEINPDSSTINYAPSLKDKFIISRDNAKNSLYLQMNSLRAEDTAVYYCARPDGNYWYFDVWGQGTLVTVSS
VL: MDMRVPAQLLGLLLLWFPGSRCDIQMTQSPSSLSASVGDRVTITCKASQDVGIAVAWYQQKPGKVPKLLIYWASTRHTGVPDRFSGSGSGTDFTLTISSLQPEDVATYYCQQYSSYPYTFGQGTKVEIKR
EC50 [1]: 18.4 nM

B2: CD33 antibody IgG1 wt subtype QP41154116 (antibody, V domains shown)
VH: QVQLVQSGAEVKKPGESVKVSCKASGYTFTNYGMNWVKQAPGQGLEWMGWINTYTGEPTYADKFQGRVTMTTDTSTSTAYMEIRNLGGDDTAVYYCARWSWSDGYYVYFDYWGQGTSVTVSS
VL: DIVMTQSPDSLTVSLGERTTINCKSSQSVLDSSTNKNSLAWYQQKPGQPPKLLLSWASTRESGIPDRFSGSGSGTDFTLTIDSPQPEDSATYYCQQSAHFPITFGQGTRLEIKR
EC50 [2]: 2.89 nM | EC50 [3]: 3.31 nM

B3: CD33/CD16A/IL-15 trifunctional fusion protein QP42914285 (FC with L234A/L235A mutation for eliminating function) (bispecific antibody)
light: SYVLTQPSSVSVAPGQTATISCGGHNIGSKNVHWYQQRPGQSPVLVIYQDNKRPSGIPERFSGSNSGNTATLTISGTQAMDEADYYCQVWDNYSVLFGGGTKLTVLRTVAAPSVFIFPPSDEQLKSGTASVVCLLNNFYPREAKVQWKVDNALQSGNSQESVTEQDSKDSTYSLSSTLTLSKADYEKHKVYACEVTHQGLSSPVTKSFNRGEC
heavy: QVQLVQSGAEVKKPGESLKVSCKASGYTFTSYYMHWVRQAPGQGLEWMGIINPSGGSTSYAQKFQGRVTMTRDTSTSTVYMELSSLRSEDTAVYYCARGSAYYYDFADYWGQGTLVTVSSASTKGPSVFPLAPSSKSTSGGTAALGCLVKDYFPEPVTVSWNSGALTSGVHTFPAVLQSSGLYSLSSVVTVPSSSLGTQTYICNVNHKPSNTKVDKKVEPKSCDKTHTCPPCPAPEAAGGPSVFLFPPKPKDTLMISRTPEVTCVVVDVSHEDPEVKFNWYVDGVEVHNAKTKPREEQYNSTYRVVSVLTVLHQDWLNGKEYKCKVSNKALPAPIEKTISKAKGQPREPQVYTLPPSREEMTKNQVSLSCAVKGFYPSDIAVEWESNGQPENNYKTTPPVLDSDGSFFLVSKLTVDKSRWQQGNVFSCSVMHEALHNRYTQKSLSLSPGKGGSHHHHHH
chain 1: not shown
chain 2: not shown
EC50 [2]: 3.08 nM | EC50 [3]: 4.51 nM

B5: QP42714274 (antibody)
chain 1: not shown
chain 2: EVQLLESGGGLVQPGGSLRLSCAVSGFTFNSFAMSWVRQAPGKGLEWVSAISGSGGGTYYADSVKGRFTISRDNSKNTLYLQMNSLRAEDTAVYFCAKDKILWFGEPVFDYWGQGTLVTVSSASTKGPSVFPLAPSSKSTSGGTAALGCLVKDYFPEPVTVSWNSGALTSGVHTFPAVLQSSGLYSLSSVVTVPSSSLGTQTYICNVNHKPSNTKVDKKVEPKSCDKTHTCPPCPAPEAAGGPSVFLFPPKPKDTLMISRTPEVTCVVVDVSHEDPEVKFNWYVDGVEVHNAKTKPREEQYNSTYRVVSVLTVLHQDWLNGKEYKCKVSNKALPAPIEKTISKAKGQPREPQVYTLPPSREEMTKNQVSLSCAVKGFYPSDIAVEWESNGQPENNYKTTPPVLDSDGSFFLVSKLTVDKSRWQQGNVFSCSVMHEALHNRYTQKSLSLSPGKGGSHHHHHH
chain 3: not shown
chain 4: not shown
EC50 [1]: 4.76 nM

B8: CD33/CD16A/IL-15 trifunctional fusion protein QP43394340 (FC with L234A/L235A mutation for eliminating function) (bispecific antibody)
chain 1: not shown
chain 2: not shown
light: DIVMTQSPDSLTVSLGERTTINCKSSQSVLDSSTNKNSLAWYQQKPGQPPKLLLSWASTRESGIPDRFSGSGSGTDFTLTIDSPQPEDSATYYCQQSAHFPITFGQGTRLEIKRTVAAPSVFIFPPSDEQLKSGTASVVCLLNNFYPREAKVQWKVDNALQSGNSQESVTEQDSKDSTYSLSSTLTLSKADYEKHKVYACEVTHQGLSSPVTKSFNRGEC
heavy: QVQLVQSGAEVKKPGESVKVSCKASGYTFTNYGMNWVKQAPGQGLEWMGWINTYTGEPTYADKFQGRVTMTTDTSTSTAYMEIRNLGGDDTAVYYCARWSWSDGYYVYFDYWGQGTSVTVSSASTKGPSVFPLAPSSKSTSGGTAALGCLVKDYFPEPVTVSWNSGALTSGVHTFPAVLQSSGLYSLSSVVTVPSSSLGTQTYICNVNHKPSNTKVDKKVEPKSCDKTHTCPPCPAPEAAGGPSVFLFPPKPKDTLMISRTPEVTCVVVDVSHEDPEVKFNWYVDGVEVHNAKTKPREEQYNSTYRVVSVLTVLHQDWLNGKEYKCKVSNKALPAPIEKTISKAKGQPREPQVYTLPPSREEMTKNQVSLSCAVKGFYPSDIAVEWESNGQPENNYKTTPPVLDSDGSFFLVSKLTVDKSRWQQGNVFSCSVMHEALHNRYTQKSLSLSPGK
EC50 [2]: 13.4 nM

B9: CD33/CD16A bispecific antibody QP4115777778 (FC wild-type) (bispecific antibody)
chain: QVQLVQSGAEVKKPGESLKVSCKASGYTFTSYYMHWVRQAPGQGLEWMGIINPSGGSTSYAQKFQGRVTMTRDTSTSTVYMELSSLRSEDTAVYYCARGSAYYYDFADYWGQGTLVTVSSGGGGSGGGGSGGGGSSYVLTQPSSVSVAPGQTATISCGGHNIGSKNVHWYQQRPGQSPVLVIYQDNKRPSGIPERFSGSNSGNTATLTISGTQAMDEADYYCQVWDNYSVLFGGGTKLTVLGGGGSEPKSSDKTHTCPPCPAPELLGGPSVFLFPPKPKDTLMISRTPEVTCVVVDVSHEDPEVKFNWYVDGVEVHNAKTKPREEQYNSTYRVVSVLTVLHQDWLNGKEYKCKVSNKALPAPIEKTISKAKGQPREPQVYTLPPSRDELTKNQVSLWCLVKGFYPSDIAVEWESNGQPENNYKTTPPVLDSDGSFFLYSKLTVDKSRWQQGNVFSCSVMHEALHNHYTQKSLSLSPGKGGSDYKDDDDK
heavy: QVQLVQSGAEVKKPGESVKVSCKASGYTFTNYGMNWVKQAPGQGLEWMGWINTYTGEPTYADKFQGRVTMTTDTSTSTAYMEIRNLGGDDTAVYYCARWSWSDGYYVYFDYWGQGTSVTVSSASTKGPSVFPLAPSSKSTSGGTAALGCLVKDYFPEPVTVSWNSGALTSGVHTFPAVLQSSGLYSLSSVVTVPSSSLGTQTYICNVNHKPSNTKVDKKVEPKSCDKTHTCPPCPAPELLGGPSVFLFPPKPKDTLMISRTPEVTCVVVDVSHEDPEVKFNWYVDGVEVHNAKTKPREEQYNSTYRVVSVLTVLHQDWLNGKEYKCKVSNKALPAPIEKTISKAKGQPREPQVYTLPPSREEMTKNQVSLSCAVKGFYPSDIAVEWESNGQPENNYKTTPPVLDSDGSFFLVSKLTVDKSRWQQGNVFSCSVMHEALHNRYTQKSLSLSPGKGGSHHHHHH
light: B8 light
EC50 [2]: 9.63 nM

B10: CD33/CD16A/IL-15 trifunctional fusion protein QP743745 (FC wild-type) (bispecific antibody)
chain 1: not shown
chain 2: not shown
light: B8 light
heavy: B8 heavy with A239L, A240L
EC50 [2]: 8.08 nM

The next lines start with the values.

EC50 [3]: 2.31 nM
B4: QP42824285 (antibody)
chain 1: MEFGLSWLFLVAILKGVQCQVQLVQSGAEVKKPGESVKVSCKASGYTFTNYGMNWVKQAPGQGLEWMGWINTYTGEPTYADKFQGRVTMTTDTSTSTAYMEIRNLGGDDTAVYYCARWSWSDGYYVYFDYWGQGTSVTVSSGGGSGGGGSYVLTQPSSVSVAPGQTATISCGGHNIGSKNVHWYQQRPGQSPVLVIYQDNKRPSGIPERFSGSNSGNTATLTISGTQAMDEADYYCQVWDNYSVLFGGGTKLTVLGGGGSGGGGSGGGGSRTVAAPSVFIFPPSDEQLKSGTASVVCLLNNFYPREAKVQWKVDNALQSGNSQESVTEQDSKDSTYSLSSTLTLSKADYEKHKVYACEVTHQGLSSPVTKSFNRGEC
chain 2: MEFGLSWLFLVAILKGVQCQVQLVQSGAEVKKPGESLKVSCKASGYTFTSYYMHWVRQAPGQGLEWMGIINPSGGSTSYAQKFQGRVTMTRDTSTSTVYMELSSLRSEDTAVYYCARGSAYYYDFADYWGQGTLVTVSSGGGSGGGGDIVMTQSPDSLTVSLGERTTINCKSSQSVLDSSTNKNSLAWYQQKPGQPPKLLLSWASTRESGIPDRFSGSGSGTDFTLTIDSPQPEDSATYYCQQSAHFPITFGQGTRLEIKGGGGSGGGGSGGGGSASTKGPSVFPLAPSSKSTSGGTAALGCLVKDYFPEPVTVSWNSGALTSGVHTFPAVLQSSGLYSLSSVVTVPSSSLGTQTYICNVNHKPSNTKVDKKVEPKSCDKTHTCPPCPAPEAAGGPSVFLFPPKPKDTLMISRTPEVTCVVVDVSHEDPEVKFNWYVDGVEVHNAKTKPREEQYNSTYRVVSVLTVLHQDWLNGKEYKCKVSNKALPAPIEKTISKAKGQPREPQVYTLPPSREEMTKNQVSLSCAVKGFYPSDIAVEWESNGQPENNYKTTPPVLDSDGSFFLVSKLTVDKSRWQQGNVFSCSVMHEALHNRYTQKSLSLSPGKGGSHHHHHH
chain 3: not shown
chain 4: not shown

EC50 (CS1-Fc): 5.24 µg/mL
B6: QP344944564368 (antibody)
chain 1: not shown
chain 2: MEFGLSWLFLVAILKGVQCEVQLVESGGGLVQPGGSLRLSCAASGFDFSRYWMSWVRQAPGKGLEWIGEINPDSSTINYAPSLKDKFIISRDNAKNSLYLQMNSLRAEDTAVYYCARPDGNYWYFDVWGQGTLVTVSSASTKGPSVFPLAPSSKSTSGGTAALGCLVKDYFPEPVTVSWNSGALTSGVHTFPAVLQSSGLYSLSSVVTVPSSSLGTQTYICNVNHKPSNTKVDKKVEPKSCDKTHTCPPCPAPEAAGGPSVFLFPPKPKDTLMISRTPEVTCVVVDVSHEDPEVKFNWYVDGVEVHNAKTKPREEQYNSTYRVVSVLTVLHQDWLNGKEYKCKVSNKALPAPIEKTISKAKGQPREPQVYTLPPSREEMTKNQVSLSCAVKGFYPSDIAVEWESNGQPENNYKTTPPVLDSDGSFFLVSKLTVDKSRWQQGNVFSCSVMHEALHNRYTQKSLSLSPGKGGSHHHHHH
chain 3: MDMRVPAQLLGLLLLWFPGSRCDIQMTQSPSSLSASVGDRVTITCKASQDVGIAVAWYQQKPGKVPKLLIYWASTRHTGVPDRFSGSGSGTDFTLTISSLQPEDVATYYCQQYSSYPYTFGQGTKVEIKRTVAAPSVFIFPPSDEQLKSGTASVVCLLNNFYPREAKVQWKVDNALQSGNSQESVTEQDSKDSTYSLSSTLTLSKADYEKHKVYACEVTHQGLSSPVTKSFNRGEC

EC50 [1]: ~0.289 nM | EC50 [3]: 21.4 nM
B7: QP43354336 (antibody, V domains shown)
VH: QVQLVQSGAEVKKPGESLKVSCKASGYTFTSYYMHWVRQAPGQGLEWMGIINPSGGSTSYAQKFQGRVTMTRDTSTSTVYMELSSLRSEDTAVYYCARGSAYYYDFADYWGQGTLVTVSS
VL: MDMRVPAQLLGLLLLWFPGSRCSYVLTQPSSVSVAPGQTATISCGGHNIGSKNVHWYQQRPGQSPVLVIYQDNKRPSGIPERFSGSNSGNTATLTISGTQAMDEADYYCQVWDNYSVLFGGGTKLTVLR
